US20110262525A1, “METHODS OF TREATMENT” (SCHERING CORPORATION, priority 2006, published 2011)

What was measured:
[1] = test system: squamous cell carcinoma cell line SCC 25; assay: Cell-Titer Glo proliferation assay, SCC25; format: cell-based; conditions: 0.000256-100 nM antibody, 96 hours
Description: (§1) Cell proliferation was assayed using a Cell-Titer Glo assay (Promega Corp.; Madison, Wis.). A cell-titer glo assay generates a “glow” luminescent signal in the presence of ATP from viable cells, which can be detected with a plate reader luminometer or CCD imaging device.
(§2) In this assay, squamous cell carcinoma cells, SCC9, SCC25 and SCC15, were trypsinized, counted and resuspended at 25,000 cells/ml in 10% HI-FBS RPMI containing NEAA, L-Glu, MEM Vitamins and PS. […] (2500 cells) were added to each well BD Falcon 96 well black, clear bottom TC treated plate. Cells were allowed to attach and spread overnight at 37° C. Then, 10% RPMI medium was replaced with […] 2% RPMI, containing the LCF/HCA antibody at the appropriate concentration, the following day. The anti-IGF1R antibody concentrations used in each experiment were 100 nM, 20 nM, 5 nM, 0.8 nM, 0.16 nM, 0.032 nM, 0.0064 nM, 0.00128 nM, and 0.000256 nM. All treatments were prepared in 2% RPMI at 20× concentration and serial diluted. Every test point was prepared in triplicate on separate assay plates. As mentioned above, cell proliferation was measured using the CellTiter-Glo Luminescent Cell Viability Assay (Promega) at 96 hours post treatment. Luminescence was detected on a Wallac 420 Plate Reader with stacker.

[2] = test system: KT-10 xenograft (Wilms); assay: PPTP in vivo xenograft KT-10; conditions: KT-10 (Wilms) xenograft, 0.5 mg per mouse ip twice weekly for four weeks
Description: (§3) The PPTP includes a molecularly characterized in vitro panel of cell lines (n=27) and in vivo panel of xenografts (n=61) representing most of the common types of childhood solid tumors and childhood ALL (acute lymphoblastic leukemia). LCF/HCA anti-IGF1R antibody was tested against the PPTP in vitro panel at concentrations ranging from 0.01 nM to 100 nM; and was tested against the PPTP in vivo panel at a dose of 0.5 mg per mouse administered twice weekly for four weeks via intraperitoneal injection. Three measures of antitumor activity were used: 1) response criteria modeled after the clinical setting; 2) treated-to-control (T/C) tumor volume at day 21; and 3) a time to event (4-fold increase in tumor volume) measure based on the median EFS of treated and control lines (intermediate activity required EFS (event-free survival) T/C>2, and high activity additionally required a net reduction in median tumor volume at the end of the experiment).
(§4) Stage 1 testing involved testing an agent across the entire PPTP panel of childhood cancer xenograft lines at its maximum tolerated dose (MTD) or at a dose selected based on PK/PD (pharmacokinetic/pharmacodynamic) studies using adult preclinical models.
(§5) In vivo solid tumor testing: For each xenograft line, 10 mice bearing subcutaneous (SC) tumors initiated treatment when the tumors were between 0.2-0.5 cm^3 in volume. Two perpendicular tumor diameters were measured at once weekly intervals with digital vernier calipers. Assuming tumors to be spherical, volumes were calculated from the formula (π/6)×d3, where d represented the mean diameter.
(§6) Drug: LCF/HCA was dissolved in 20mM sodium acetate pH 5 buffer containing 150 mM sodium chloride, and administered intraperitoneally twice weekly for 4 consecutive weeks at a dose of 0.5 mg per animal. […]
(§7) Median Group Response: Each individual mouse in each treatment group was assigned a response score (see Tables above) and a median score for the treatment group was calculated and then each treatment group was assigned an overall response according to the table below. […]

[3] = test system: KT-11 xenograft (Wilms); assay: PPTP in vivo xenograft KT-11; conditions: KT-11 (Wilms) xenograft, 0.5 mg per mouse ip twice weekly for four weeks
Description: as §3, §4, §5, §6, §7

[4] = test system: A498 human kidney carcinoma tumor cells; assay: A498 renal cell carcinoma xenograft in athymic nude mice; format: in vivo, mouse; conditions: 0.1 mg/injection ip two times per week, seven times starting on day 12
Description: Athymic nude mice were inoculated with A498 human kidney carcinoma tumor cells in the right flank, subcutaneously, along with Matrigel (1:1::cells:gel). In these experiments, 5×10^6 cells/mouse in a 1:1 mix with regular matrigel. The LCF/HCA anti-IGF1R antibody was inoculated intraperitoneally (ip) (0.1 mg/injection). Mice were dosed with antibody two times per week, by intraperitoneal injection, seven times starting on day 12. Tumor size was measured with calipers and the data was entered into the LABCAT data experimental collection and analysis program program (Innovative Programming Associates, Inc.; Princeton, N.J.). Mice were grouped with average size of 100 mm^3. Tumor size and body weight were measured twice weekly.

[5] = test system: GBM2 xenograft (Glioblastoma); assay: PPTP in vivo xenograft GBM2
Description: as §3, §4, §5, §6, §7

[6] = test system: Human melanoma cells (A375-SM); assay: Cell-Titer Glo assay, A375-SM melanoma; format: cell-based; conditions: 0.000256-100 nM antibody
[7] = test system: EW5 xenograft (Ewings); assay: PPTP in vivo xenograft EW5; design: key to EFS activity notation (high, intermediate, indeterminate): high (!); intermediate (#); indeterminate (^)
Description: as §3, §4, §5
(§8) Drug: LCF/HCA was dissolved in 20mM sodium acetate pH 5 buffer containing 150 mM sodium chloride, and administered intraperitoneally twice weekly for 4 consecutive weeks at a dose of 0.5 mg per animal. The antibody was provided to each testing site in coded vials for blinded testing according the PPTP's standard operating procedures.
(§9) Median Group Response: Each individual mouse in each treatment group was assigned a response score (see Tables above) and a median score for the treatment group was calculated and then each treatment group was assigned an overall response according to the table below.
(§10) Statistical Methods: Event-free survival (EFS) distributions of each treatment group were compared to the EFS distribution of the respective control group using the exact log rank test. P-values were 2-sided & were not adjusted for multiple comparisons given the exploratory nature of this study. P-values<0.05 were considered to be significant.

[8] = test system: squamous cell carcinoma cell line SCC 9; assay: Cell-Titer Glo proliferation assay, SCC9; format: cell-based; conditions: 0.000256-100 nM antibody, 96 hours
Description: as §1, §2

[9] = test system: NB-1643 xenograft (Neuroblastoma); assay: PPTP in vivo xenograft NB-1643; conditions: NB-1643 (Neuroblastoma) xenograft, 0.5 mg per mouse ip twice weekly for four weeks
Description: as §3, §4, §5, §8, §9, §10

[10] = test system: gastric cancer cell line SNU-16; assay: Cell-Titer Glo proliferation assay, SNU-16; format: cell-based, human; conditions: 0.000256-100 nM antibody
[11] = test system: BT-46 xenograft (Medulloblastoma); assay: PPTP in vivo xenograft BT-46; conditions: BT-46 (Medulloblastoma) xenograft, 0.5 mg per mouse ip twice weekly for four weeks
Description: as §3, §4, §5, §6, §7

[12] = test system: BT-28 xenograft (Medulloblastoma); assay: PPTP in vivo xenograft BT-28; conditions: BT-28 (Medulloblastoma) xenograft, 0.5 mg per mouse ip twice weekly for four weeks
Description: as §3, §4, §5, §6, §7

[13] = 0.5 mg per mouse ip twice weekly for four weeks
[14] = day 21, 0.5 mg per mouse ip twice weekly for four weeks

B1: LCF/HCA: fully human anti-IGF1R antibody comprising the mature 19D12/15H12 light chain F (LCF) and mature heavy chain A (HCA) (antibody, V domains shown)
VH: EVQLVQSGGGLVHPGGSLRLSCAASGFTFSSFAMHWVRQAPGKGLEWISVIDTRGATYYADSVKGRFTISRDNAKNSLYLQMNSLRAEDMAVYYCARLGNFYYGMDVWGQGTTVTVSS
VL: EIVLTQVPDFQSVTPKEKVTITCRASQSIGSSLHWYQQKPDQSPKLLIKYASQSLSGVPSRFSGSGSGTDFTLTINSLEAEDAAAYYCHQSSRLPHTFGGGTKVEIKRT
proliferation of squamous cell carcinoma cell line [1]: inhibited
EFS T/C [2]: 1.3
Median Final RTV [2]: >4
Tumor Volume T/C ([2]; day 21): 0.43
EFS T/C [3]: 1
Median Final RTV [3]: >4
Tumor Volume T/C ([3]; day 21): 0.99
in vivo growth of renal cell carcinoma tumor [4]: in vivo growth inhibition
EFS T/C [5, 13]: 1.4
Median Final RTV [5, 13]: >4
Tumor Volume T/C [5, 14]: 0.73
in vitro growth of melanoma cell line [6]: in vitro growth inhibition
EFS T/C [7, 13]: > 2.3
EFS activity notation (high, intermediate, indeterminate) [7, 13]: !
Median Final RTV [7, 13]: 0.4!
Overall Group Response [7, 13]: CR* (7 < MS ≦ 9)
Tumor Volume T/C [7, 14]: 0.12
proliferation of squamous cell carcinoma cell line [8]: inhibited
EFS T/C [9]: 1.8
Median Final RTV [9]: >4
Overall Group Response [9]: PD2 (1 < MS ≦ 3)
Tumor Volume T/C ([9]; day 21): 0.53
proliferation of gastric cancer cell line [10]: inhibitied
EFS T/C [11]: 1.2
Median Final RTV [11]: >4
Tumor Volume T/C ([11]; day 21): 0.69
EFS T/C [12]: 1.2
Median Final RTV [12]: >4
Tumor Volume T/C ([12]; day 21): 1.18
